# Literature values as cited in PMC7396566.
# Tests used:
# [1] = biological target: TSLP:TSLPR complex (Homo sapiens) (UniProt Q969D9)
# TSLP (Homo sapiens) = TSLP (Homo sapiens) (UniProt Q969D9)
# IL-7Rα (Homo sapiens) = IL-7Rα (Homo sapiens) (UniProt P16871)
# Chain of TSLPR (Q9HC73 23-231): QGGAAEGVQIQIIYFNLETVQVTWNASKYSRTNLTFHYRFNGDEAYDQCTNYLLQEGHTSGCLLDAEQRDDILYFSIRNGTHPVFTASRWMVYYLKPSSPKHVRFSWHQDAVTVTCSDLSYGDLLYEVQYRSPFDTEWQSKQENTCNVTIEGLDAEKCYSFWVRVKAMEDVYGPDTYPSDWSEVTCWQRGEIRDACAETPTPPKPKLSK
Kd [1],Kd (TSLP (Homo sapiens)),Kd (IL-7Rα (Homo sapiens)),Substance
29 nM,–,–,IL-7Rα (from UniProt P16871)
–,32 nM,20000 nM,TSLPR (from UniProt Q9HC73)
